Non-standard residues stand in square brackets, D forms with d. No end group written: not given here. pT = C[C@@H](OP(=O)(O)O)[C@H](N)C(=O)O
B2: Spc24–Spc25 complex (Spc24^92–197, Spc25^70–224) (complex, human)
chain 1: EEDTRLKASLLQLTRELEELKEIEADLERQEKEVDEDTTVTIPSAVYVAQLYHQVSKIEWDYECEPGMVKGIHHGPSVAQPIHLDSTQLSRKFISDYLWSLVDTEW
chain 2: RQNKLIQEKKDNLLKLIAEVKGKKQELEVLTANIQDLKEEYSRKKETISTANKANAERLKRLQKSADLYKDRLGLEIRKIYGEKLQFIFTNIDPKNPESPFMFSLHLNEARDYEVSDSAPHLEGLAEFQENVRKTNNFSAFLANVRKAFTATVYN

Assays:
CENP-C = CENP-C (UniProt Q03188); assay: anti-GFP IP, immunoblot; details: reference: Dsn1-WT-GFP; sites S100,S109
[1] = molecular target: fluorescein-labeled CENP-C^1–28 peptide (human, 5FAM (fluorescein) on the N-terminus); assay: MST
[2] = molecular target: T1, His6-tagged recombinant Mis12C containing Dsn1-WT (human, UniProt Q9H410 1-356; Q96IY1 1-258; Q9H081 1-205; Q6P1K2 1-205); assay: pull-down
T1 sequence (looked up) 1: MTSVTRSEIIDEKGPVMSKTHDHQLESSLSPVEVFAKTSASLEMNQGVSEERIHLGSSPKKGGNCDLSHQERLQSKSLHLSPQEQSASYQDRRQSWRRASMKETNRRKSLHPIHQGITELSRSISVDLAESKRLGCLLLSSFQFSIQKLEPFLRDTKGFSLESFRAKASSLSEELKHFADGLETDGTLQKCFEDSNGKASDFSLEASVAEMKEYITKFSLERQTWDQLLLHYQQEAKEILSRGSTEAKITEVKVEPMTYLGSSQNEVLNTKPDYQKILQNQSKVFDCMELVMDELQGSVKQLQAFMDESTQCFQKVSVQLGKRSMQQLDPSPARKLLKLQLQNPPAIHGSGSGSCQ
T1 sequence (looked up) 2: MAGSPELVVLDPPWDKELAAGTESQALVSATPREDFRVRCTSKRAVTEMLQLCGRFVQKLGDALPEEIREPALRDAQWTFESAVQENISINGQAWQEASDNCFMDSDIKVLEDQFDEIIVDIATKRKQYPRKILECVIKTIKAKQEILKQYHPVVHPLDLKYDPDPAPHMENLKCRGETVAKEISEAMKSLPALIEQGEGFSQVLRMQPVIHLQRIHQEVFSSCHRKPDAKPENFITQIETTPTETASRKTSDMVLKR
T1 sequence (looked up) 3: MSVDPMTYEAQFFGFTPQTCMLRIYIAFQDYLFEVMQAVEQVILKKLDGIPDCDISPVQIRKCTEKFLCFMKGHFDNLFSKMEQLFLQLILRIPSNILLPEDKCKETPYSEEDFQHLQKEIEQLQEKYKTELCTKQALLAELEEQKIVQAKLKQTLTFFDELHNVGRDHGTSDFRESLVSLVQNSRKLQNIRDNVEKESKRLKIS
T1 sequence (looked up) 4: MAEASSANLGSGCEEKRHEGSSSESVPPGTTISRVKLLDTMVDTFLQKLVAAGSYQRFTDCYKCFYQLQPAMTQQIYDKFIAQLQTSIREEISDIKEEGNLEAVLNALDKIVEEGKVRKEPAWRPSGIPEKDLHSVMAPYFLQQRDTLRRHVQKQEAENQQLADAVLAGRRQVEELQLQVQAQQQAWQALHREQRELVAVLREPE

[3] = molecular target: B2; assay: pull-down

For “Dsn1 (from UniProt Q9H410) Dsn1-S100A/S109A-GFP”, the “binding against the reference” value (CENP-C) was “weaker”.

B1: Recombinant Mis12C-WT (construct not told for this experiment) (complex)
chain 1: MTSVTRSEIIDEKGPVMSKTHDHQLESSLSPVEVFAKTSASLEMNQGVSEERIHLGSSPKKGGNCDLSHQERLQSKSLHLSPQEQSASYQDRRQSWRRASMKETNRRKSLHPIHQGITELSRSISVDLAESKRLGCLLLSSFQFSIQKLEPFLRDTKGFSLESFRAKASSLSEELKHFADGLETDGTLQKCFEDSNGKASDFSLEASVAEMKEYITKFSLERQTWDQLLLHYQQEAKEILSRGSTEAKITEVKVEPMTYLGSSQNEVLNTKPDYQKILQNQSKVFDCMELVMDELQGSVKQLQAFMDESTQCFQKVSVQLGKRSMQQLDPSPARKLLKLQLQNPPAIHGSGSGSCQ
chain 2: MAGSPELVVLDPPWDKELAAGTESQALVSATPREDFRVRCTSKRAVTEMLQLCGRFVQKLGDALPEEIREPALRDAQWTFESAVQENISINGQAWQEASDNCFMDSDIKVLEDQFDEIIVDIATKRKQYPRKILECVIKTIKAKQEILKQYHPVVHPLDLKYDPDPAPHMENLKCRGETVAKEISEAMKSLPALIEQGEGFSQVLRMQPVIHLQRIHQEVFSSCHRKPDAKPENFITQIETTPTETASRKTSDMVLKR
chain 3: MSVDPMTYEAQFFGFTPQTCMLRIYIAFQDYLFEVMQAVEQVILKKLDGIPDCDISPVQIRKCTEKFLCFMKGHFDNLFSKMEQLFLQLILRIPSNILLPEDKCKETPYSEEDFQHLQKEIEQLQEKYKTELCTKQALLAELEEQKIVQAKLKQTLTFFDELHNVGRDHGTSDFRESLVSLVQNSRKLQNIRDNVEKESKRLKIS
chain 4: MAEASSANLGSGCEEKRHEGSSSESVPPGTTISRVKLLDTMVDTFLQKLVAAGSYQRFTDCYKCFYQLQPAMTQQIYDKFIAQLQTSIREEISDIKEEGNLEAVLNALDKIVEEGKVRKEPAWRPSGIPEKDLHSVMAPYFLQQRDTLRRHVQKQEAENQQLADAVLAGRRQVEELQLQVQAQQQAWQALHREQRELVAVLREPE
For B1, the Kd [1] was 2100 ± 400 nM.

B2: binds [2].

HLEEQ[pT]PRTLLKNILLTAPESSILM (peptide, UniProt Q96BT3 80-104, looked up) [synthetic phospho-T85 CENP-T peptide containing residues 80–104]: binds [3].
